± gives the standard deviation of the averaged measurements.
Test: total protein half-life in vivo (active degradation + dilution); higher = more stable protein
[1] = E. coli NCM3722 delta-clpP delta-lon delta-hslV, growth: N-lim chemostat, doubling time 6 h
[2] = E. coli NCM3722 delta-clpP, growth: N-lim chemostat, doubling time 6 h
[3] = E. coli NCM3722 delta-hslV, growth: N-lim chemostat, doubling time 6 h
[4] = E. coli NCM3722 delta-lon, growth: N-lim chemostat, doubling time 6 h
[5] = E. coli NCM3722 delta-smpB, growth: N-lim chemostat, doubling time 6 h
[6] = wild type E. coli NCM3722, growth: C-lim chemostat, doubling time 3 h
[7] = wild type E. coli NCM3722, growth: C-lim chemostat, doubling time 6 h
[8] = wild type E. coli NCM3722, growth: C-lim chemostat, doubling time 12 h
[9] = wild type E. coli NCM3722, growth: N-lim chemostat, doubling time 6 h
[10] = wild type E. coli NCM3722, growth: N-lim chemostat, doubling time 12 h
[11] = wild type E. coli NCM3722, growth: P-lim chemostat, doubling time 6 h
[12] = wild type E. coli NCM3722, growth: P-lim chemostat, doubling time 12 h

Sequence	total protein half-life in vivo [1]	total protein half-life in vivo [2]	total protein half-life in vivo [3]	total protein half-life in vivo [4]	total protein half-life in vivo [5]	total protein half-life in vivo [6]	total protein half-life in vivo [7]	total protein half-life in vivo [8]	total protein half-life in vivo [9]	total protein half-life in vivo [10]	total protein half-life in vivo [11]	total protein half-life in vivo [12]
MKPTSVIIMDTHPIIRMSIEVLLQKNSELQIVLKTDDYRITIDYLRTRPVDLIIMDIDLPGTDGFTFLKRIKQIQSTVKVLFLSSKSECFYAGRAIQAGANGFVSKCNDQNDIFHAVQMILSGYTFFPSETLNYIKSNKCSTNSSTVTVLSNREVTILRYLVSGLSNKEIADKLLLSNKTVSAHKSNIYGKLGLHSIVELIDYAKLYELI [P0AEL8]	5.67 ± 0.072 h											
MAEFPASLLILNGKSTDNLPLREAIMLLREEGMTIHVRVTWEKGDAARYVEEARKFGVATVIAGGGDGTINEVSTALIQCEGDDIPALGILPLGTANDFATSVGIPEALDKALKLAIAGDAIAIDMAQVNKQTCFINMATGGFGTRITTETPEKLKAALGSVSYIIHGLMRMDTLQPDRCEIRGENFHWQGDALVIGIGNGRQAGGGQQLCPNALINDGLLQLRIFTGDEILPALVSTLKSDEDNPNIIEGASSWFDIQAPHDITFNLDGEPLSGQNFHIEILPAALRCRLPPDCPLLR	5 ± 0.044 h	4.23 ± 0.21 h	3.94 ± 0.33 h	4.69 ± 0.069 h	4.31 ± 0.74 h	3.19 ± 0.41 h	5.73 ± 0.4 h	9.08 ± 0.56 h	4.51 ± 0.3 h	7.91 ± 0.14 h	5.17 ± 0.48 h	9.75 ± 0.16 h
MMTKTQINKLIKMMNDLDYPFEAPLKESFIESIIQIEFNSNSTNCLEKLCNEVSILFKNQPDYLTFLRAMDGFEVNGLRLFSLSIPEPSVKNLFAVNEFYRNNDDFINPDLQERLVIGDYSISIFTYDIKGDAANLLI	4.14 h											
MLYGFSGVILQGALVTLELAISSVVLAVIIGLIGAGGKLSQNRLSGLIFEGYTTLIRGVPDLVLMLLIFYGLQIALNTVTEAMGVGQIDIDPMVAGIITLGFIYGAYFTETFRGAFMAVPKGHIEAATAFGFTRGQVFRRIMFPSMMRYALPGIGNNWQVILKSTALVSLLGLEDVVKATQLAGKSTWEPFYFAIVCGVIYLVFTTVSNGVLLFLERRYSVGVKRADL	5.69 ± 0.1 h	6.04 ± 0.29 h		6.66 ± 0.46 h	5.85 ± 0.34 h	3.09 ± 0.16 h	5.6235 ± 0.0025 h	11.5 ± 2.1 h	6.17 ± 0.47 h	12.8 ± 2.3 h	5.65 ± 0.36 h	11.2 ± 2.3 h
MSCPVIELTQQLIRRPSLSPDDAGCQALLIERLQAIGFTVERMDFADTQNFWAWRGQGETLAFAGHTDVVPPGDADRWINPPFEPTIRDGMLFGRGAADMKGSLAAMVVAAERFVAQHPNHTGRLAFLITSDEEASAHNGTVKVVEALMARNERLDYCLVGEPSSIEVVGDVVKNGRRGSLTCNLTIHGVQGHVAYPHLADNPVHRAAPFLNELVAIEWDQGNEFFPATSMQIANIQAGTGSNNVIPGELFVQFNFRFSTELTDEMIKAQVLALLEKHQLRYTVDWWLSGQPFLTARGKLVDAVVNAVEHYNEIKPQLLTTGGTSDGRFIARMGAQVVELGPVNATIHKINECVNAADLQLLARMYQRIMEQLVA [P0AED7]	4.94 ± 0.53 h	4.52 ± 0.093 h	4.42 ± 0.081 h	5.76 ± 1.5 h	4.4 ± 0.41 h	3.05 ± 0.25 h	5.7 ± 0.46 h	9.7 ± 0.28 h	4.418 ± 0.036 h	7.37 ± 0.72 h	5.6 ± 0.48 h	11 ± 1.8 h
MIGRLRGIIIEKQPPLVLIEVGGVGYEVHMPMTCFYELPEAGQEAIVFTHFVVREDAQLLYGFNNKQERTLFKELIKTNGVGPKLALAILSGMSAQQFVNAVEREEVGALVKLPGIGKKTAERLIVEMKDRFKGLHGDLFTPAADLVLTSPASPATDDAEQEAVAALVALGYKPQEASRMVSKIARPDASSETLIREALRAAL [P0A809]	5.02 ± 0.64 h	4.88 ± 0.9 h	5.46 ± 0.47 h	4.88 ± 0.49 h	5.59 ± 0.069 h	2.99 ± 0.28 h	5.04 ± 0.43 h	10.3 ± 3.1 h	4.95 ± 0.26 h	7.6 ± 0.43 h	3.73 ± 0.86 h	10.13 ± 0.068 h
MNVVILDTGCANLNSVKSAIARHGYEPKVSRDPDVVLLADKLFLPGVGTAQAAMDQVRERELFDLIKACTQPVLGICLGMQLLGRRSEESNGVDLLGIIDEDVPKMTDFGLPLPHMGWNRVYPQAGNRLFQGIEDGAYFYFVHSYAMPVNPWTIAQCNYGEPFTAAVQKDNFYGVQFHPERSGAAGAKLLKNFLEM	5.66 ± 1.5 h	4.08 ± 0.64 h	4.08 ± 0.044 h	4.11 ± 0.85 h	4.11 ± 0.27 h	3.16 ± 0.23 h	5.31 ± 0.46 h	10.5 ± 0.7 h	4.46 ± 0.29 h	7.8 ± 1.1 h	5.78 ± 0.17 h	11.3 ± 0.22 h
MTRLAEILDQMSAVLNDLKTVMDQEQQHLSMGQINGSQLQWITEQKSSLLATLDYLEQLRRKEPNTANSVDISQRWQEITVKTQQLRQMNQHNGWLLEGQIERNQQALEMLKPHQEPTLYGANGQTSTTHRGGKKISI						1.15 ± 0.27 h	4.91 h	3.28 h				
